# The nanobody polyreactivity screen of Harvey et al. (2022)
# Experiment: yeast display, Sf9 membrane polyspecificity reagent, FACS + sequencing; frameworks hold sequencing errors
# Summary of the method: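 Nanobodies from a synthetic yeast display library (Saccharomyces cerevisiae BJ5465), induced 36–48 hours with galactose, were stained 1 hour at 4 °C with 10% biotinylated, detergent-solubilized Sf9 membrane reagent, enriched on streptavidin microbeads, then FACS-sorted. Anti-HA (expression) and streptavidin (reagent binding) fluorescence set low and high (top ~1%) gates. Polyreactivity labels come from the gate of origin. Genes were colony-PCR amplified, MiSeq 2 × 250 sequenced and filtered by CDR length.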
row,Sequence,polyreactivity (PSR sort gate)
1,QVQLVESGGGLVQAGGSLRLSCADSGSIFAYNGMGWKRQAPGKERELVAAISRGGRTSYADSVKGRFTISRDNAKNTVYLQMNSVKPEDTAVYYCNAVYRWFSSAYVYSSGYNGDYWGQGTQVTVSS,high polyreactivity
2,QVQLVESGGGFVQAGGSLRLSCAASGIIFDYDAMGWYRQAPGKERELVAAISKRGGSTYYADSVKGRFTISRDHAKNTVYFQMNSLKPEDTAVYYCAAVYAREAKRYDYWGPGTQVTVSS,high polyreactivity
3,QVQLVESGGGLVQAGGSLRLSCAASGRIIVRNAMGWYRQAPGKERELVAAISGSGSRTYYADSVKGRFTISRDNAKNTVYLQMNSLNPEDTAVYYCAASGYWPFRSGFGYWGQGTQVTVSS,high polyreactivity
4,QVQLVESGGGLVQAGGSLRLSCAASGRIFFVNAMGWYRQAPGKERELVAAISWSGGNTNYADSVKGRFTISRDNAKNTVYLQMNSLKPEDTAVYYCAADNSVGEYQRVDYDYWGQGTQVSVSS,low polyreactivity
5,QVKLVESGGGLVKAGGILRLSCAASGRTFRRNAMGWYRQPPGKESELVAAISSSGGSTYYADSVKGRFTISRDNAKNTVYLQMNSLKPEDTAVYYCNAYRYYVYDTYDGHGYWGQGTQVTVSS,high polyreactivity
6,QVQLVESGGGLVQAGASLRLSCAASGSIFFPYAMGWYRQAPGKERELVASITRAGSTNYADSVKGRFTISRDNAKNTVYLQMTSQKPVDTAVYYCAARNYRQFEYGYWGQGTLVTVSS,low polyreactivity
7,QVQLVESGGGLVQAGGSLRLSCAASGSTFGDYTMGWYRQAPGKERELVAAISSGGSTYYADSVKGRFTISRDNAKNTVYLQMNSLKPEDTAVYYCAAYTKRYLYNYWGQGTQVTVSS,high polyreactivity
8,QVQLVESGGGLVQAGGSLRLSCAASGSSFEGYVLGWYRQAPGKERELVATISFSGGSTYYADSVMGRFTISRDNAKNTVYLQMNSLKPVETAVYFSGASVRYKFYSVVSVRSEYWGQGTQVTVST,low polyreactivity
9,QVQLVESGGGLVQAGGSLRLSCAASGSIFGYYTMGWYRQAAGKERELVAAITLDTGNTYYADSVKGRLTITRDNAKNTVYLQMNSLKPEDTAVYYCNTDYYSGYIARWSFDYWGQGTQVTVSS,low polyreactivity
10,QVQLVESGGGLVQAGGSRRLSCAASGRTFEGNAMGWYRQAPGKERELVAAITSGGRTNYADSVKGRFTISRDNAKNTVYLQMNSLKPEDTAVYYCAVDTRDRSTYFPGQAYDFWGQGTQVTVSS,low polyreactivity
11,QVQLVESGGGLVQAGGSLRLSCAASGFTFGENAMGWYRQAPGKERELVATISDSGDSTYYADSVKGRFTISRDNAQNTVYLQMNSLKPEDTAVYYCAAPLPHRGYDEGYWGQGTQVTVSS,low polyreactivity
12,QVQLVESGGGLVQAGGSLRLSCAASGRIFRTYAMGWYRQAPGKERELVDAISYSGGSTFYADSVKRRFTISRDNAKNTVYLQMNSLKPEYTAVYYCAADSRAKRYYWGQGTQVTVSS,high polyreactivity
13,QVQLVESGGGLVQAGGSLRLSCAASGSIFYRNVMGWYRQAPGKERELVASINFSGGSTYYADCVKGRFTISRDNAKNTVYLQMNSLKPEDTAVYYCAARTVHIYTRMYYWGQGTQVTVSS,high polyreactivity
14,QVQLVESGGGLVQAGGSLRLSCAASGSTFRSYAMGWYRQAPGKERELVAAISSSGSRTYYADSVKGRFTISRDNAKNTVYLQMNSLKPEDTAVYYCAADYYYNTKLDYWGQGTQVTVSS,high polyreactivity
15,QVQLVESGGGLVQAGGSLRLSCAASGRIFSYYAMGWYRQAPGKERELVAAISWNGGSTYYADSVKGRFTISRDNAKNTVYLQMNSLKPEDTAVYYCIRLGYRTGYERDYWGQGTQVTVSS,high polyreactivity
16,QVQLVESGGGLVQAGGSLRLSCAASGSIIGVNAMGWYRQAPGKERELVAAMSSTGGSTYYADSVKGRFSISRDNAKNTVFLQMNRLKPEDTAVYYCHTDYSKSIGDGYAGFDYWGQGTQVTVSS,low polyreactivity
17,QVQLVESGGGLVQAGGSLRLSCAASGRIFYNYAMGWYRQAPGKERELVAAISGSGGSTYYADSVKGRFTISRDNAKNTVYLQMNSLTPEDTAVYYCSTSGPQYYSRNFDYWGQGTQVTVSS,low polyreactivity
18,QVQLVESGGGLVQAGGSLRLSCAASGFTFVINDMGWYRQAPGKERELVADITSGGDTYYADSVKGRFTISRDNAKNTVYLQLNSLKPEDTAVYYCAADIYPDWIYLLYGYWGQGTQVTVSS,low polyreactivity
19,QVQLVESGGGLVQAGGSLRLSCAASGINFVYYAKGWYRPAAGKERELVAGITVNGGNTYYADSVKGRFTLSRDNAKNTVYLQMNSLKPEDTAVYYCNADYYWVLGVFDYWGHGTQVTVSS,low polyreactivity
20,QVQLVESGGGLVQAGGSLRLSCAATGRIFTYYAMGWYRQAPGKERELVAGISGSGTSTYYADSVKARFTISRDNAKNTVDLQINSLKPEDTAVYYSAADVFRDDVWLDYWGQGTQVTVSS,low polyreactivity
21,QVQLVESGGCLVQAGGSLRLSCASSGSTFHSYAMGWYRQAPGKERELVAAISRSGGSTYYADSVKGRFTISRDNAKNTVYLQMNSLKPEDTAVYYCAARDLQFSGYYYWGQGTQVTVSS,high polyreactivity
22,QVQLVESGGGLVQAGGSLRLSCAASGITFGRYAMGWYRQAPGKERELVAAISWSGGSTYYADSVKGRFTISRDNANNTVYLQMNRLKPEDTAVYYCNVVFRFNSFDYYYWGQGSQVTVSS,high polyreactivity

row,Sequence,polyreactivity (PSR sort gate)
1,QVQLEESGGGLVQAGGSLRLSCAASGRIFYHYAMGWYRTAPGKERELVAAITSSGAGTYYADSVKGRFTISRDNAKNTVYLQMNSLKPEDTAVYYCAADASRRYRYWYDYWGQGTQVTVSS,high polyreactivity
2,QVQLVESGGGLVQAGGSLRLSCAASGSTCPYYAMGWYRQAPRKEMELVASIRKRGGGTSYADSVKGRFTISRDNAKNTVYLQMNSLKPEDTALYYCAVRVYQLRYTGYDYWGQCTQVTVSS,high polyreactivity
3,QVQLVESGAGLVQAGGSLRLCCAASGRTYRLYAMGWYRQAPGKERELVAAITRGGRTNYADSVKGRFTISRDNAINTVYLQMYSLKPEDIAVYYCAARYVERHTDYYYWGQGTQVTVSS,low polyreactivity
4,QVQREESGGGLVQAGGSLRLSCAASGITFKWYAMGWYRQAPGKEREFVAIISTRGGSTYYADSVKGRFTISRDNAKNTVYLQMNSLKPVDTAVYYCNAVRSRVVHRRGDFDYWGQGTQVTVSS,high polyreactivity
5,QVQLVESGGGLVQAGGSLRLSCAASGLTFKKYAMGWYRQAPGKERELVAAISRGGSTNYADSVKGRFTISRDNAKNTVYLQMNSLKPDDTAVYYCAAEGYWHVYADYYLEDYYWGQGTQVTVSS,high polyreactivity
6,QVQLVESGGGLVQAGGSLRLSCAASGRILPSNAMGWYRQATGNERELVATISSSGGDTYYADSVKGRFTNSRDNAKNTVYLQMNSLKPEDTAVYYCAADSTWEGGYKYEYWGQGTQVTVSS,low polyreactivity
7,QVQLVESGGGLVQAGGSLRLSCAASGSTFNANAMGWYRQAPGKERELVAGISSGGSTYADSVKGRFTISRDNAKNTVYLKMNSLKPEDTAVYYCNADFYSWYPTFYWYDYWGQGTQVTVSS,high polyreactivity
8,QVQLVESGVGLVQAGGSLRLSCAASGIIFRYYAMGWYRQAPGKERELVAAISSSGVSTYYADSVKGRFTISRDNAKNTVYLQMNSLKPEDTAVYYCNAVIWVRQYFSRSSSNYWGQGTQVTVSS,high polyreactivity
9,QVQLVESGGGLVQAGGSLRLSCAASGITFDDYVMGWYRQAPGKERELVAAITRSGGRTYYADSVKGRFTISRDNAKNTVDLQMNSLKPEVTAVYYCAARHRDNRFDYWGQGTQVTVSS,high polyreactivity
10,QFQLLESGGGLVQAGGSLRLSCAASGSTFSLTTMGWYRPAPGKERELVAAINSGGSTYYADSVKGRFTISRDNAKNTVYLKMNSLKPEDTAVYYCAARTKYFGRFDYWGQGTQVTVSS,low polyreactivity
11,QVQLVESGGGLVQAGGSLRLSCAPSGFTFDPYAMGWYRQAPGKERELVAAIDYSGGTTYYADSVKGRFTISRDNAKNTVYLQMNSLKPEDTAVYYCAAEYTYYHWWGYDYWGQGTQVTVSS,high polyreactivity
12,QVQLVESGGGLVQAGGSLRLSCAASGRTFGLNAMGWYRQAPGKERELVAAIDWRGVNTYYADSVKGRFTISRDNAKNTVYLQMNSLKPEDTAVYYCNARAYGRYYWGQGTQVTVSS,high polyreactivity
13,QVQLVESGGGLVQAGGSLRLSCAASGRIFKVYAMGWYRQAPGKERELVAAISSRGGSTYYADSVKGRFTISRDNAKNTVYLQMNSLKPEDTAVYYCAALVTWLHPKGDYWGQGTQVTVSS,high polyreactivity
14,PVQLVESGGGLVQAGGSLRLSCADSGNIFTYNAMGWSRPEPGTERELVAGITSAGGTYYADSVKGRFTISRDNAKNSVYLQMNSLKPEDTAVYYWNVDYDNDTVRGDKIGYSYEYWGHGTQVTVSS,low polyreactivity
15,QVQLEDSGGGLVQAGGSLRLTCAASGRIFYPNVIGRNRQAPGKERELVAAIRTSGTGTYYADSVKGRFTISRDNAMNNVYLQMNSQKTQDTAGYYCAADYGYNRYWWWDWSYEYGYEYWGQGTQVTVSS,high polyreactivity
16,QVQLVESGGGLVQSGGSLRLSCAASGLTLGHNAMGLYRQAPGKERELVAAITRGGSTNYSDSVKGRFTISRDNAKNTVYFHMNSLKPEYTAVYSCAADLYLGWYYGFEYDYWGQGTQVTVSS,low polyreactivity
17,QVQLVESGGGLVQARGSLRLSCASSGRIFWRYAMRWYSQSPGKERELVAAISRSGGRTYYADSVKGRFTISRDNAKNTVYLQMISLKPEDTAVYYCAAKTGGQPGDYWGQGTQVTVSS,high polyreactivity
18,QVQLVESGGGLVQAGGSLRLSCAASGYIFVKNAMGWYRQEPGKERELVAAISSSGGSTYYADSVKGRFTISRDNAKNTVYLQMNSLKPEDTAVYYCNVYGSYTSVSRQSDWWPDYGYWGQGTQVTVSS,low polyreactivity
19,QVQLVESGGGLVQAGGSLRVSCAASGSTFRVNGMGGYRQAPGKERELLATIRGRGGTTYYADSVKGRFTISRDNAKTTVYLQMNSLKPDDTAVSYCAATNVKRTEGYTPDYDYWGHGTQVTVSS,high polyreactivity
20,QVQLVESGGGLVQAGGSLRLSCAASGSNFRVYAMGWYSQAAGKERELVAAISRSGSITYYADSVKGRFTISRDNAKNTVYLQMNSLKPEDTAVYYCAARTYCRFTASTYYYWGQGTQVTVSS,high polyreactivity
21,QVQLVESGGGLVQAGGSLRLSCAASGGIFYPNVKGWYRQAPGKEREFVAAISSSSGSTYADSVKGRFTISRDNAKNTVYLQMNSLKPDDTAVFYCAAEENWWGIWVRYDYWVQGTQVTVSS,low polyreactivity
